According to the Human Domainome abundance scans (Beltran et al. 2025):
± gives the uncertainty stated by the source.

B1: Intersectin-1, residues 1156 to 1213; numbered along this chain, Q15811 (parent)
chain: AVCQVIGMYDYTAQNDDELAFNKGQIINVLNKEDPDWWKGEVNGQVGLFPSNYVKLTT

Variants of: B1
Test: abundance fitness (aPCA) (normalised: wild type 0, dead -1); higher = more abundant; growth selection in yeast, the domain comes from the species named
Conditions: Homo sapiens

Variant | abundance fitness
AVCQVIGMYDYTAQNDDELAFNKGQIINVLNKEDPDWWKGEVNGQVGRFPSNYVKLTT [L48R] | -0.07 ± 0.071
AVCQVIGMYDYTAQNDDELAFNKGQIINVLNKEDPDWWKGEVNGQVGGFPSNYVKLTT [L48G] | -0.544 ± 0.085
AVCQVIGMYDYTAQNDDELAFNKGQIINVLNKEDPDWWKGEVNGQVGIFPSNYVKLTT [L48I] | 0.063 ± 0.15
AVCQVIGMYDYTAQNDDELAFNKGQIINVLNKEDPDWWKGEVNGQVGKFPSNYVKLTT [L48K] | -0.055 ± 0.11
AVCQVIGMYDYTAQNDDELAFNKGQIINVLNKEDPDWWKGEVNGQVGVFPSNYVKLTT [L48V] | -0.068 ± 0.079
AVCQVIGMYDYTAQNDDELAFNKGQIINVLNKEDPDWWKGEVNGQVGHFPSNYVKLTT [L48H] | -0.335 ± 0.18
AVCQVIGMYDYTAQNDDELAFNKGQIINVLNKEDPDWWKGEVNGQVGNFPSNYVKLTT [L48N] | -0.166 ± 0.2
AVCQVIGMYDYTAQNDDELAFNKGQIINVLNKEDPDWWKGEVNGQVGDFPSNYVKLTT [L48D] | -0.761 ± 0.22
AVCQVIGMYDYTAQNDDELAFNKGQIINVLNKEDPDWWKGEVNGRVGLFPSNYVKLTT [Q45R] | -0.043 ± 0.089
AVCQVIGMYDYTAQNDDELAFNKGQIINVLNKEDPDWWKGEVNGHVGLFPSNYVKLTT [Q45H] | -0.398 ± 0.22
AVCQVIGMYDYTAQNDDELAFNKGQIINVLNKEDPDWWKGEVNGFVGLFPSNYVKLTT [Q45F] | -0.387 ± 0.17
AVCQVIGMYDYTAQNDDELAFNKGQIINVLNKEDPDWWKGEVNGMVGLFPSNYVKLTT [Q45M] | -0.023 ± 0.13
AVCQVIGMYDYTAQNDDELAFNKGQIINVLNKEDPDWWKGEVNGEVGLFPSNYVKLTT [Q45E] | -0.149 ± 0.13
AVCQVIGMYDYTAQNDDELAFNKGQIINVLNKEDPDWWKGEVNGSVGLFPSNYVKLTT [Q45S] | -0.198 ± 0.1
AVCQVIGMYDYTAQNDDELAFNKGQIINVLNKEDPDWWKGEVNGAVGLFPSNYVKLTT [Q45A] | 0.016 ± 0.09
AVCQVIGMYDYTAQNDDELAFNKGQIINVLNKEDPDWWKGEVNGYVGLFPSNYVKLTT [Q45Y] | -0.411 ± 0.16
AVCQVIGMYDYTAQNDDELAFNKGQIINVLNKEDPDWWKGEVNGNVGLFPSNYVKLTT [Q45N] | 0.109 ± 0.16
AVCQVIGMYDYTAQNDDELAFNKGQIINVLNKEDPDWWKGEVNGLVGLFPSNYVKLTT [Q45L] | -0.28 ± 0.1
AVCQVIGMYDYTAQNDDELAFNKGQIINVLNKEDPDWWKGEVNGWVGLFPSNYVKLTT [Q45W] | -0.537 ± 0.14
AVCQVIGMYDYTAQNDDELAFNKGQIINVLNKEDPDWWKGEVNGIVGLFPSNYVKLTT [Q45I] | -0.1 ± 0.13
AVCQVIGMYDYTAQNDDELAFNKGQIINVLNKEDPDWWKGEVNGTVGLFPSNYVKLTT [Q45T] | -0.169 ± 0.13
AVCQVIGMYDYTAQNDDELAFNKGQIINVLNKEDPDWWKGEVNGCVGLFPSNYVKLTT [Q45C] | -0.03 ± 0.15
AVCQVIGMYDYTAQNDDELAFNKGQIINVLNKEDPDWWKGEVNGVVGLFPSNYVKLTT [Q45V] | 0.008 ± 0.084

Variant | abundance fitness
AVCQVIGMYDYTAQNDDELAFNKGQIINVLNKEDPDWWKGEVNGKVGLFPSNYVKLTT [Q45K] | 0.084 ± 0.14
AVCQVIGMYDYTAQNDDELAFNKGQIINVLNKEDPDWWKGEVNGDVGLFPSNYVKLTT [Q45D] | 0.075 ± 0.17
AVCQVIGMYDYTAQNDDELAFNKGQIINVLNKEDPDWWKGEVNGGVGLFPSNYVKLTT [Q45G] | -0.662 ± 0.11
AVCQVIGMYDYTAQNDDELAFNKGQIINVLNKEDPDWWKGEVNGPVGLFPSNYVKLTT [Q45P] | -0.765 ± 0.17
AVCQVIGMYDYTAQNDDELAFNKGQIINVLNKEDPDWWKGEVNGQGGLFPSNYVKLTT [V46G] | -0.712 ± 0.093
AVCQVIGMYDYTAQNDDELAFNKGQIINVLNKEDPDWWKGEVNGQIGLFPSNYVKLTT [V46I] | -0.006 ± 0.13
AVCQVIGMYDYTAQNDDELAFNKGQIINVLNKEDPDWWKGEVNGQHGLFPSNYVKLTT [V46H] | -0.562 ± 0.26
AVCQVIGMYDYTAQNDDELAFNKGQIINVLNKEDPDWWKGEVNGQFGLFPSNYVKLTT [V46F] | -0.463 ± 0.19
AVCQVIGMYDYTAQNDDELAFNKGQIINVLNKEDPDWWKGEVNGQEGLFPSNYVKLTT [V46E] | -0.412 ± 0.13
AVCQVIGMYDYTAQNDDELAFNKGQIINVLNKEDPDWWKGEVNGQTGLFPSNYVKLTT [V46T] | -0.337 ± 0.12
AVCQVIGMYDYTAQNDDELAFNKGQIINVLNKEDPDWWKGEVNGQLGLFPSNYVKLTT [V46L] | -0.499 ± 0.11
AVCQVIGMYDYTAQNDDELAFNKGQIINVLNKEDPDWWKGEVNGQWGLFPSNYVKLTT [V46W] | -0.892 ± 0.19
AVCQVIGMYDYTAQNDDELAFNKGQIINVLNKEDPDWWKGEVNGQQGLFPSNYVKLTT [V46Q] | -0.242 ± 0.14
AVCQVIGMYDYTAQNDDELAFNKGQIINVLNKEDPDWWKGEVNGQDGLFPSNYVKLTT [V46D] | -0.668 ± 0.16
AVCQVIGMYDYTAQNDDELAFNKGQIINVLNKEDPDWWKGEVNGQYGLFPSNYVKLTT [V46Y] | -0.34 ± 0.17
AVCQVIGMYDYTAQNDDELAFNKGQIINVLNKEDPDWWKGEVNGQCGLFPSNYVKLTT [V46C] | -0.503 ± 0.12
AVCQVIGMYDYTAQNDDELAFNKGQIINVLNKEDPDWWKGEVNGQNGLFPSNYVKLTT [V46N] | -0.703 ± 0.29
AVCQVIGMYDYTAQNDDELAFNKGQIINVLNKEDPDWWKGEVNGQMGLFPSNYVKLTT [V46M] | -0.396 ± 0.18
AVCQVIGMYDYTAQNDDELAFNKGQIINVLNKEDPDWWKGEVNGQKGLFPSNYVKLTT [V46K] | -0.306 ± 0.13
AVCQVIGMYDYTAQNDDELAFNKGQIINVLNKEDPDWWKGEVNGQSGLFPSNYVKLTT [V46S] | -0.296 ± 0.09
AVCQVIGMYDYTAQNDDELAFNKGQIINVLNKEDPDWWKGEVNGQRGLFPSNYVKLTT [V46R] | -0.375 ± 0.09
AVCQVIGMYDYTAQNDDELAFNKGQIINVLNKEDPDWWKGEVNGQAGLFPSNYVKLTT [V46A] | -0.505 ± 0.091
AVCQVIGMYDYTAQNDDELAFNKGQIINVLNKEDPDWWKGEVNGQVGLFCSNYVKLTT [P50C] | -0.615 ± 0.19
